These results are taken from FireProtDB (doi:10.1021/bi027202n).

As usually defined, the Tm is the temperature at which the thermal transition is half complete.

Several values for one entry are separate records, joined by “and”; a condition that tells them apart may be missing. Equal entries are not always repeated.

The conditions of this series: Geobacillus stearothermophilus, pH 5.4, CD, sodium phosphate 10 mM, reversible: yes(>90%), whole UniProt chain shown; for denaturant m value / denaturant midpoint (higher = more stable) / unfolding free energy: 25 °C, Urea.

B1: Large ribosomal subunit protein bL9 wild type, P02417 (protein)
chain: MKVIFLKDVKGKGKKGEIKNVADGYANNFLFKQGLAIEATPANLKALEAQKQKEQRQAAEELANAKKLKEQLEKLTVTIPAKAGEGGRLFGSITSKQIAESLQAQHGLKLDKRKIELADAIRALGYTNVPVKLHPEVTATLKVHVTEQK
As for B1, where the note is “sodium chloride 100 mM”, the denaturant m value was 0.72 kcal/mol/M and 0.64 kcal/mol/M; the “denaturant midpoint (higher = more stable)” value is 6.18 M and 3.16 M; the unfolding free energy was 4.45 kcal/mol and 2.02 kcal/mol. Further, under “sodium chloride 750 mM”, the denaturant m value was 0.62 kcal/mol/M and 0.66 kcal/mol/M; the “denaturant midpoint (higher = more stable)” value is 7.76 M and 3.64 M; the unfolding free energy was 4.81 kcal/mol and 2.4 kcal/mol. In addition, the Tm (Thermal, sodium chloride 100 mM) was 56 °C.
